Experimental data taken from the supplement of paper PMC7877785.
± gives the uncertainty stated by the source.

Assay: self-splicing fitness, log relative to wild type (ln ratio); higher = more splicing; Tetrahymena group I intron in knt gene, E. coli kanamycin selection, DiMSum; sequences stand for … in CUCUCU…GGAGGGAAAAGUUAUCAGGCAUGCACCUGGUAGCUAGUCUUUAAACCAAUAGAUUGCAUCGGUUUAAAAGGCAAGACCGUCAAAUUGCGGGAAAGGGGUCAACAGCCGUUCAGUACCAAGUCUCAGGGGAAACUUUGAGAUGGCCUUGCAAAGGGUAUGGUAAUAAGCUGACGGACAUGGUCCUAACCACGCAGCCAAGUCCUAAGUCAACAGAUCUUCUGUUGAUAUGGAUGCAGUUCACAGACUAAAUGUCGGUCGGGGAAGAUGUAUUCUUCUCAUAAGAUAUAGUCGGACCUCUCCUUAAUGGGAGCUAGCGGAUGAAGUGAUGCAACACUGGAGCCGCUGGGAACUAAUUUGUAUGCGAAAGUAUAUUGAUUAGUUUUGGAGUACUCGUGGUCG
Method in brief: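 The eight P1ex-region nucleotides of an intron in the knt kanamycin-resistance gene on pET-22b(+) were all randomised and the library put into E. coli BL21(DE3). Six replicate transformations were grown overnight at 37°C or 30°C on LB agar with or without 25 μg/mL kanamycin, together with 100 μg/mL carbenicillin, 50 μM IPTG and 0.2% rhamnose. Colonies were pooled and amplicon-sequenced on an Illumina HiSeq 2500. Fitness from DiMSum is the error-weighted combination of wild-type-normalised replicate fold changes, kanamycin over none.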

Sequence	self-splicing fitness (ln) (30 °C)	self-splicing fitness (ln) (37 °C)
AUGGAGCAAUAUUACGUGCA	-2.82 ± 0.21	-1.65 ± 0.16
GGCCAGCAAUAUUACGCGGA	-1.17 ± 0.12	-0.716 ± 0.1
AAUAAGCAAUAUUACGGCAC	-1.44 ± 0.11	-0.634 ± 0.14
AAAAAGCAAUAUUACGGCCA	-0.43 ± 0.11	-0.0922 ± 0.15
CAGCAGCAAUAUUACGCGUU	-3.04 ± 0.14	-2.45 ± 0.17
UGUAAGCAAUAUUACGGAGU	-2.24 ± 0.22	-1.58 ± 0.33
UUAGAGCAAUAUUACGCCCA	-1.04 ± 0.19	-0.676 ± 0.3
GUUUAGCAAUAUUACGUUGG	-3.81 ± 0.37	-1.45 ± 0.23
CGUAAGCAAUAUUACGAGCU	-3.7 ± 0.37	-2.53 ± 0.41
CUACAGCAAUAUUACGGUGA	-1.61 ± 0.081	-0.453 ± 0.092
UCAGAGCAAUAUUACGCCGU		-3.02 ± 0.43
ACGGAGCAAUAUUACGCACA	-2.08 ± 0.36	-2.46 ± 0.37
CCUAAGCAAUAUUACGUCCA	-3.28 ± 0.25	-2.1 ± 0.41
UUCCAGCAAUAUUACGACUU	-1.5 ± 0.18	-0.653 ± 0.2
GCAUAGCAAUAUUACGCUAU	-4.09 ± 0.28	-1.97 ± 0.25
AUUAAGCAAUAUUACGACUG	-2.34 ± 0.2	-1.64 ± 0.24
GGAUAGCAAUAUUACGAGGG	-3.29 ± 0.28	-2.33 ± 0.27
GCUAAGCAAUAUUACGGCAA	-2.17 ± 0.21	-0.981 ± 0.16
AGCAAGCAAUAUUACGUCCC	-0.545 ± 0.1	-0.16 ± 0.13
AUGAAGCAAUAUUACGAUCU	-0.0854 ± 0.072	0.317 ± 0.088
CGUCAGCAAUAUUACGGGGG	-3.62 ± 0.2	-2.05 ± 0.14
CACAAGCAAUAUUACGAGAU	-3.28 ± 0.1	-2.74 ± 0.12
UGAAAGCAAUAUUACGGCUA	0.376 ± 0.092	0.259 ± 0.11
AUGUAGCAAUAUUACGUUGG	-2.21 ± 0.12	-1.8 ± 0.17
UAGAAGCAAUAUUACGUGAU	-2.73 ± 0.11	-1.84 ± 0.11
AUGGAGCAAUAUUACGCUUU		-1.37 ± 0.46

Sequence	self-splicing fitness (ln) (30 °C)	self-splicing fitness (ln) (37 °C)
GACUAGCAAUAUUACGAACC	-1.64 ± 0.17	-0.0491 ± 0.19
UAGUAGCAAUAUUACGCAAU		-2.45 ± 0.35
UAUUAGCAAUAUUACGAGGU	-2.64 ± 0.24	-2.27 ± 0.35
AACCAGCAAUAUUACGCGAC	-2.27 ± 0.14	-1.2 ± 0.12
AAGUAGCAAUAUUACGUAAU	-2.31 ± 0.1	0.0619 ± 0.096
CACCAGCAAUAUUACGAGAC		-2.02 ± 0.32
UGGUAGCAAUAUUACGUUCU	-1.48 ± 0.12	-0.725 ± 0.14
AGGAAGCAAUAUUACGGAAC	-3.47 ± 0.26	-2.96 ± 0.31
GUUCAGCAAUAUUACGUUCA	-0.741 ± 0.12	-0.425 ± 0.13
AGAAAGCAAUAUUACGAAGC	-3.61 ± 0.47	-2.91 ± 0.48
UUGGAGCAAUAUUACGUCCU	-2.05 ± 0.2	-0.535 ± 0.17
CAUAAGCAAUAUUACGAGUC	-3.2 ± 0.43	-2.68 ± 0.38
CCUCAGCAAUAUUACGAUGC	-4.19 ± 0.24	-2.15 ± 0.3
UAGAAGCAAUAUUACGCCAU	-1.02 ± 0.4	
UCGUAGCAAUAUUACGCUGA	-2.45 ± 0.28	-1.35 ± 0.15
ACGUAGCAAUAUUACGCAUC	-3.3 ± 0.22	-0.518 ± 0.29
UUUGAGCAAUAUUACGCGGA	-3.43 ± 0.35	-1.28 ± 0.17
ACGCAGCAAUAUUACGUGCA	-1.58 ± 0.076	-0.0655 ± 0.083
UUCGAGCAAUAUUACGGAUC		-1.85 ± 0.48
AAAAAGCAAUAUUACGCGGC	-3.53 ± 0.26	-2.15 ± 0.27
CAGGAGCAAUAUUACGCCCU		-1.65 ± 0.32
AGAAAGCAAUAUUACGAUGA	-0.734 ± 0.1	-0.785 ± 0.11
UAUGAGCAAUAUUACGGGCC		-3.14 ± 0.43
ACAAAGCAAUAUUACGGAUC	-2.77 ± 0.12	-0.403 ± 0.11
CACGAGCAAUAUUACGGGGU	-4.09 ± 0.23	-2.67 ± 0.16
